Measurements as given in US7108990B2, “Chemokine receptor” (ChemoCentryx, Inc., priority 1999, dated 2006).
“Also recorded” adds a separate entry of the source.

Columns and labels:
CCX CKR [1] = biological target: T1, CCX CKR (Homo sapiens, UniProt Q9NPB9); test: Radioligand binding competition (DisplaceMax) to CCX CKR stable transfectants with Scatchard transformation
T1 construct: Full length CCX CKR expression constructs were made in pIRESpuro expression vector; expressed in transfected cells
T1 sequence (Q9NPB9 1-350): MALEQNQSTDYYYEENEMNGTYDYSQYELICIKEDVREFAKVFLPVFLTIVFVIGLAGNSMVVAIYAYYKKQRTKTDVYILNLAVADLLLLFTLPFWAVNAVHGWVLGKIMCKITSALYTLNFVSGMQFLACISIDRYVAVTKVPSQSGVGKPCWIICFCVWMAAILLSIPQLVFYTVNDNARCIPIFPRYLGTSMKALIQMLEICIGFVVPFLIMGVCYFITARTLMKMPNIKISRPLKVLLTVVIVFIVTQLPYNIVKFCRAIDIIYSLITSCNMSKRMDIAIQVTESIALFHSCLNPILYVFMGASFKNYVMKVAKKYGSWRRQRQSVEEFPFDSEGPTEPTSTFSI
Description: In one embodiment, binding is detected as described by Dairaghi et al., 1997, J. Biol. Chem. 272:28206–209 (incorporated by reference in its entirety for all purposes) substituting CCX CKR transfectants for the CCR3 transfectants). In one embodiment, binding is detected using the filter based technique described by Dairaghi et al., 1999, J. Biol. Chem. 274:2156 (incorporated by reference in its entirety for all purposes), e.g., as shown in FIG. 4. Briefly, this technology employs expanded, efficiency-maximized radioligand binding utilizing filtration protocols. In these assays, 1×10^5 CCXCKR-293 HEK cells are incubated with ^125I-labeled ELC (MIP3beta) (final concentration of ˜0.05 nM) in the presence of unlabeled chemokine for 3 h at 4° C. in 25 mM HEPES, 140 mM NaCl, 1 mM CaCl2, 5 mM MgCl2, and 0.2% bovine serum albumin, adjusted to pH 7.1. Reactions were aspirated onto PEI-treated GF/B glass filters using a cell harvester (Packard). Filters are washed twice (25 mM HEPES, 500 mM NaCl, 1 mM CaCl2 5 mM MgCl2, adjusted to pH 7.1) and scintillant (e.g., MicroScint 20; 50 μl) is added to dried filters and counted (e.g., using a Packard Topcount scintillation counter). The competition dose-response curves is analyzed by standard methods to determine IC50 values (e.g., using GraphPad Prism software (San Diego, Calif.)). Additionally, a Scatchard transformation can be used to estimate the receptor sites per cell (e.g., using WaveMetrics Igor software (Lake Oswego, Oreg.)).
(§1) Binding analysis was carried out using efficiency-maximized radioligand binding utilizing filtration protocols designated “Displace Max” (Dairaghi et al., 1999, J. Biol. Chem. 274:21569). In these assays, DisplaceMax employed the simultaneous interrogation of CCX CKR transfectants by >80 distinct purified chemokines in the ability to displace radiolabeled ELC or TECK, using the protocol described (Dairaghi et al., 1999, J. Biol. Chem. 274:21569).
The binding interactions identified in the primary screen were examined quantitatively by extensive radioligand binding competition to CCX CKR stable transfectants and Scatchard transformation of the displacement data (FIG. 4B). […] In each case, the murine versions of these chemokines also bound, and with even greater affinity; the apparent Kd's are listed in FIG. 4B. […] In similar experiments, murine CTACK bound the receptor with a Kd of ˜9 nM (not shown). CTACK is also referred to as CCL27, ALP, ILC, and ESkine.

CCX CKR [2] = biological target: T1, CCX CKR; test: Adhesion of HEK293-CCX CKR cells to immobilized stalkokines and competition by soluble chemokines; format: cell-based; settings: soluble recombinant chemokine 5–10 ug/ml
Description: “Stalkokine” technology was used to identify the chemokines bound by the CCX CKR. Briefly, immobilized native chemokines alone are incapable of capturing cells bearing cognate receptors (Imai et al., 1997, Cell 91:521). We have developed non-native chemokine structures, stalkokines, comprising chemokine moieties engineered as N-terminal attachments to extended modified mucins (Bazan et al., 1997, Nature 385:640). In one embodiment, stalkokines, harvested in the supernatants of HEK293 cells after transient transfection, are anchored to solid substrates via antibodies against carrier domains (e.g. poly-His epitopes) engineered to the carboxyl terminus, leaving the chemokine domain free to interact with candidate orphan receptors.
To determine ligand binding to CCX CKR, HEK293-CCX CKR cells were used to interrogate chemokine ‘stalkokines’ (SK), i.e., molecules in which discrete chemokine domains were engineered to be tethered to the end of an extended stalk structure. Stalkokines were interrogated using 8-well chamber slides coated first with anti-His anchoring antibody (10 ug/ml in PBS overnight at RT), which were washed and ‘blocked’ (2% FBS/0.5% BSA in PBS); treated with 250 ul of HEK293 cell stalkokine supernatants (1 hr at 37 C), and incubated with 500,000 HEK293-CCX CKR transfectants (1.5 hrs at RT). Inhibition of adhesion by competition with soluble chemokines was done by incubating cells with 5–10 ug/ml of recombinant chemokines. In all cases, nonadherent cells were removed by washing in PBS; remaining adherent cells were fixed with 1% glutaraldehyde, photoimaged and counted. As a primary screen this adhesion would reveal putative receptor-ligand interactions.

CCX CKR [3] = biological target: T1, CCX CKR; test: Ligand induced internalization of Flag-CCX CKR in 293 cells (FACS); format: cell-based; settings: 100 nM chemokine, 37° C., 15 or 45 minutes, 293 F-CCR10 cells
Description: 293 cells transfected with the Flag-CCX CKR fusion plasmid (i.e., “293 F-CCR10 cells;” see Example 3) were incubated at 37° C. with varying concentrations of chemokines (ELC, SLC, TECK, murine CTACK and MCP-4) for 15 or 45 minutes. Following incubation, the cells were washed and fixed with 3% paraformaldehyde for 15 minutes on ice. The cells were stained with anti-Flag M1 antibody, followed by a PE-conjugated anti-mouse secondary antibody. FACS analysis were then carried out to determine surface expression of the receptor.
Results: A reduction in antibody binding in the presence of ligand is an indication of ligand-induced internalization of the receptor.

CCX CKR [4] = biological target: T1, CCX CKR; test: Ligand binding fingerprint: cold chemokines competing against 125I-ELC on CCX CKR stable transfectants; settings: cold competitor at 200 nM; human and murine chemokines
Description: In order to rapidly and thoroughly define a given chemokine receptor's ligand binding fingerprint, we have established an approach to comprehensively profile chemokine receptors using a large array of purified chemokines and chemokine variants. We used this approach to confirm independently the interaction of ELC and other chemokines with CCX CKR. Employing radioligand binding of ^125-labeled-ELC or ^125-TECK to CCX CKR stable transfectants, chemokine specificity for the new receptor was determined.
as §1

CCX CKR [5] = biological target: T1, CCX CKR; test: Preliminary chemotaxis analysis of CCX CKR transfectants; format: cell-based; settings: preliminary chemotaxis analyses
CCX CKR [6] = biological target: T1, CCX CKR; test: Homologous competition binding assay with radiolabeled chemokine on HEK293-CCX CKR cells; settings: HEK293-CCX CKR cells versus wildtype HEK293 cells
Description: Furthermore ELC-SK mediated adhesion was abolished in the presence of soluble native ELC as a competitor (FIG. 3A, top row). […] Moreover, radiolabeled ELC was used in a traditional homologous competition assay in the presence of increasing concentrations of unlabeled ELC. […] Taken together, the stalkokine-based adhesion and radiolabeled ligand binding/homologous competition assays indicate that CCX CKR is a new chemokine receptor that bound a novel compliment of chemokines.

Molecule	affinity of binding to CCX CKR, in words (CCX CKR [1])	effect of soluble chemokine on ELC-SK mediated adhesion of HEK293-CCX CKR cells (CCX CKR [2])	internalization of CCX CKR (CCX CKR [3])	competition with 125I-labeled ELC binding to CCX CKR (fingerprint) (CCX CKR [4])	migration of CCX CKR transfectants in response to chemokine (CCX CKR [5])	binding in homologous competition of radiolabeled with unlabeled chemokine (CCX CKR [6])
ELC: EBI1 ligand chemokine, recombinant	high affinity	abolished; also recorded: ablation of adhesion	Internalization of the receptor was observed	bound well	moderate migration	significant binding
SLC: secondary lymphoid-tissue chemokine, recombinant (protein) SDGGAQDCCLKYSQRKIPAKVVRSYRKQEPSLGCSIPAILFLPRKRSQAELCADPKELWVQQLMQHLDKTPSPQKPAQGCRKDRGASKTGKKGKGSKGCKRTERSQTPKGP	high affinity	significant reduction; also recorded: ablation of adhesion	Internalization of the receptor was observed	bound well	moderate migration	
